This test deals with H3-H4 (Xenopus laevis, UniProt P84233 1-136; P62799 1-103). Kind of test: SEC. For orientation: In gel filtration, larger molecules generally elute earlier.

B1: co-purified Rtt109-Vps75 complex (complex)
chain 1: MSLNDFLSSVLPVSEQFEYLSLQSIPLETHAVVTPNKDDKRVPKSTIKTQHFFSLFHQGKVFFSLEVYVYVTLWDEADAERLIFVSKADTNGYCNTRVSVRDITKIILEFILSIDPNYYLQKVKPAIRSYKKISPELISAASTPARTLRILARRLKQSGSTVLKEIESPRFQQDLYLSFTCPREILTKICLFTRPASQYLFPDSSKNSKKHILNGEELMKWWGFILDRLLIECFQNDTQAKLRIPGEDPARVRSYLRGMKYPLWQVGDIFTSKENSLAVYNIPLFPDDPKARFIHQLAEEDRLLKVSLSSFWIELQERQEFKLSVTSSVMGISGYSLATPSLFPSSADVIVPKSRKQFRAIKKYITGEEYDTEEGAIEAFTNIRDFLLLRMATNLQSLTGKREHRERNQPVPASNINTLAITMLKPRKKAKALPKT
chain 2: MMSDQENENEHAKAFLGLAKCEEEVDAIEREVELYRLNKMKPVYEKRDAYIDEIAEFWKIVLSQHVSFANYIRASDFKYIDTIDKIKVEWLALESEMYDTRDFSITFHFHGIEGDFKEQQVTKVFQIKKGKDDQEDGILTSEPVPIEWPQSYDSINPDLIKDKRSPEGKKKYRQGMKTIFGWFRWTGLKPGKEFPHGDSLASLFSEEIYPFCVKYYAEAQRDLEDEEGESGLSADGDSEDDDGSLGEVDLPLSDEEPSSKKRKV
modifications: acetyl-lysine at K290 (wildtype Rtt109 used is fully acetylated at K290, unpublished data)
Take B1: the binding result is listed as “binds”.

Source of the values: article PMC2917178 (Biochemistry, 2010).
